Biological target: MCMV nuclear capsids (murine cytomegalovirus (MCMV) | murine cytomegalovirus (MCMV), Smith strain)
Experiment: immunoelectron microscopy of purified nuclear capsids; nuclear capsids purified on a sucrose gradient from infected cells, adsorbed on grids, rabbit GFP antiserum and protein A-gold (10 nm); gold beads per capsid counted; WT capsids as background

With “S-GFP-SCP fusion protein expressed ectopically from recombinant MCMV” the gold beads per capsid (anti-GFP immunogold) (gold beads per capsid) was 15.
